# Measured values as given in the DeepSol protein solubility set.
# Test: soluble on expression in E. coli; label from the status in PepcDB or PDB records
row,Sequence,soluble on expression in E. coli
1,MEDQDLLEIGILNSGHRQRILQAIQLLPKMRPIGHDGYHPTSVAEWLDSIELGDYTKAFLINGYTSMDLLKKIWEVELINVLKINLIGHRKRILASLGDRLHDDPPQKPPRSITLREPSGNHTPPQLSPSLSQSTYTTGGSLDVPHIIMQGDARRRRNENYFDDIPRSKLERQMAQSSVCEIWTNQNAGFPFSAIHQVHNTGDWGEPSITLRPPNEATASTPVQYWQHHPEKLIFQSCDYKAFYLGSMLIKELRGTESTQDACAKMRANCQKSTEQMKKVPTIILSVSYKGVKFIDATNKNIIAEHEIRNISCAAQDPEDLSTFAYITKDLKSNHHYCHVFTAFDVNLAYEIILTLGQAFEVAYQLALQARKGGHSSTLPESFENKPSKPIPKPRVSIRKSVQIDPSEQKTLANLPWIVEPGQEAKRGINTKYETTIF,soluble
2,MIFTSGANKLNDNRNVRTKISSNRQSIKTAPTKAAEIPEYLQLYQTPPGDDISLTEFDDIAMERLKLLKSFENLKDSVSLYNDEFKDKFRKLCDGTKLIVFPDQKPPHQEEVYELWRRDNIGHFILRLAFCRTPENQKWLTQIEGDFLRFRLRQEREQVLDSALANVNFTIEKLGYTEKQAMIEDLEAACQFNLFEAPNKTFYKVDFIDAIELIRRGSVHLKKGFAYFPFDDLVTILVTKMKNNMMAAMARSFKHLAILEEEGRLLPRLSLLSNNAYSGKDYNGEQPDGSIIVTRHMIDKLSRRSFAPCMKQMHNHLRVNHHLKYGARRQYGLFLKGIGLSLDEAIAMMRDEFTKKITSDKFDKEYGYNIRYMYGKEGRRVAQTAMSCATIILRNPPSAVDCHGCPFRHSEKQVLKQKLGSDAILKKEQIERIAELAELNQYDKACTRYFEFMHNLEEGGLGQLITHPNQFYEESQKIVAERIAAKQESQEAPAPKIEKMDTE,not soluble
3,MAAKIPGVIALFDVDGTLTAPRKEATPELLDFIRELRKVVTIGVVGGSDLSKISEQLGKTVTNDYDYCFSENGLVAHKDGKSIGIQSLKLHLGDDKLKELINFTLHYIADLDIPIKRGTFIEFRNGMLNVSPIGRNCSQEERDEFERYDKVQNIRPKMVAELRERFAHLNLTFSIGGQISFDVFPKGWDKTYCLQYLEDFSEIHFFGDKTYEGGNDYEIYESPKTIGHSVTSPDDTVAKCKALFMS,soluble
4,MNILQFNVRLAEGGAAGVALDLHQRALQQGLASHFVYGYGKGGKESVSHQNYPQVIKHTPRMTAMANIALFRLFNRDLFGNFNELYRTITRTAGPVVLHFHVLHSYWLNLKSVVRFCEKVKNHKPDVTLVWTLHDHWSVTGRCAFTDGCEGWKTGCQKCPTLNNYPPVKIDRAHQLVAGKRQLFREMLALGCQFISPSQHVADAFNSLYGPGRCRIINNGIDMATEAILADLPPVRETQGKPKIAVVAHDLRYDGKTNQQLVREMMALGDKIELHTFGKFSPFTAGNVVNHGFETDKRKLMSALNQMDALVFSSRVDNYPLILCEALSIGVPVIATHSDAAREVLQKSGGKTVSEEEVLQLVQLSKPEIAQAIFGTTLAEFSQRSRAAYSGQQMLEEYVNFYQNL,soluble
5,MGHHHHHHSHDDDDLNTIEFKILAYYTRHHVFKSTPALFSPKLLRTRSLSQRGLGNCSANESWTEVSWPCRNSQSSEKAINLGKKKSSWKAFFGVVEKEDSQSTPAKVSAQGQRTLEYQDSHSQQWSRCLSNVEQCLEHEAVDPKVISIANRVAEIVYSWPPPQATQAGGFKSKEIFVTEGLSFQLQGHVPVASSSKKDEEEQILAKIVELLKYSGDQLERKLKKDKALMGHFQDGLSYSVFKTITDQVLMGVDPRGESEVKAQGFKAALVIDVTAKLTAIDNHPMNRVLGFGTKYLKENFSPWIQQHGGWEKILGISHEEVD,not soluble
6,MSLDQPVVGLITKTDTNPFFVKMKQGAEAAASKDGAKLITAAGKFDGDNASQVTAIENMMTAGAKAILITPSDTKAIVPSIKKARAAGVMVVALDTPTDPQDATDALFATDNFKAGVLIGKYAKAALNGKPAKIATLDLAPGVSVGVLRHNGFLEGFGVKEGDPSVVCSQDTRGDQAKGQTAMENCLQKSPDINVVYTINEPAAAGAYRALKAAGKDKSVMIVSIDGGCEGVRNVKAGAIAATSQQYPLKMASLGVTAGVEYAKTGKKVSGYQDTGVTLITDKPMAGIDSKDTKFGLDNCWGNEGHHHHHH,soluble
7,MGSDKIHHHHHHMMDRQFQHAMLPQPTHDELARQNFVQSLKTHIFRNISPGNKVVYEKLAKPKFEQEHQRPPQNRHEIREVMQHESYYRWTSALKRIHQEILWDAVNTSVGRQLPELIERAKDRGGELGTLTLDPNFQIPNYQKAVDIHCMPGGYHSEFTGGDVAAGATYDRGAYLYGLGWLGPLNNDMGLSIVQNYLLPEYPDFRPRKILDMGCSVGNSTLPYVDAYPDAEVHAIDVGAPMLRYGHARAEALGKRVHFWQQNAEHTNFPDESFDLVVSHILLHEIPPSAVRKVMQESYRLLAPGGIMLHLEAPLYRHLDVYTQFIFDWETANNNEPFWSAVRDLDLVTLATEAGFAPDKTFEKFVPNGAWKAKVTNGLFQNGNSGSLNTWFVVAATK,not soluble
8,MTCFKIRLSKQPLKGRTMNKPFITQAQLALYKYQPSSKYYGKTMAYTFASELLDYSKVNKFIIHEEIQCFLNRRISNNIWKIYFSDESVAYIKILELQDDYSRGIEIKTFDFNPNVGDVFG,not soluble
9,GAVDLNKENRDPKYVESIVNRSQKIVDKLGLTDAKVAEDVCNVIANRYFELNDIYEIRDAKVKAVKESGLTGDAKNEALKAAENEKDAALYRSHFAFPASLSLFLNEEQIEAVKDGMTYGVVKVTYEATLDMIPSLKEEEKVQIYAWLVEAREFAMDAENSNKKHAAFGKYKGRINNYLAKRGYNLTKEREEWAKRVKARGGTL,soluble
10,MVLSHAVSESDVSVHSTFASRYVRTSLPRFKMPENSIPKEAAYQIINDELMLDGNPRLNLASFVTTWMEPECDKLIMSSINKNYVDMDEYPVTTELQNRCVNMIAHLFNAPLEEAETAVGVGTVGSSEAIMLAGLAFKRKWQNKRKAEGKPVDKPNIVTGANVQVCWEKFARYFEVELKEVKLSEGYYVMDPQQAVDMVDENTICVAAILGSTLNGEFEDVKLLNDLLVEKNKETGWDTPIHVDAASGGFIAPFLYPELEWDFRLPLVKSINVSGHKYGLVYAGIGWVIWRNKEDLPEELIFHINYLGADQPTFTLNFSKGSSQVIAQYYQLIRLGHEGYRNVMENCRENMIVLREGLEKTERFNIVSKDEGVPLVAFSLKDSSCHTEFEISDMLRRYGWIVPAYTMPPNAQHITVLRVVIREDFSRTLAERLVIDIEKVMRELDELPSRVIHKISLGQEKSESNSDNLMVTVKKSDIDKQRDIITGWKKFVADRKKTSGIC,soluble
11,MSLDIQPFSMPLSSPLSTADGTIESRRGFLVRTEIDGVAGVGEAAPLPGWTESYDACQAALCGVEKPKQALEDNVFDDTPAARHAVSLAVADAAARRAGVPLYRRLGAGERVESVPVNATVGDGSPSATAEAVADAAAAGFPAAKVKVGNRSLDADIERIEAVRQRYPDIELRVDANGAWEFETAREAVESMSALGVAVLEQPLPAEALDNHRRLRGHGIDIALDEGLLRHGVDAAIAAEAADCLVCKPMALGGVDIARSAAERARADGWDVIVTTTIDGVVARAAAVHLAASVPDVRPCGLATGGRLASDVGPDAAPVSDGTAAVPQGKGNIPPLEGHHHHHH,soluble
12,MIEQPSPKVYDELLSIWEEAVRSTHHFLTEADIQFYKPLIRHEYLAAVRLYIIREDSGTIAAFMGLSNDCIEMLFVRPNAHGHGYGSRLVEFAIRKKRIYKVDVNEQNAAALGFYLHMGFETTGRDALDATGKPFPILHLQIPPIRLRKATLEDIDLLRTLFTQSVQNTCSTDYNRLQIQAWTGRGTLQRWHELFQSDLYFLLAEDSRKSQVAGFTSVNSKGYLHSMFVHPDYQRQGIASRLLLKAEEYVRIRQGVSVYSEVSITARPFFEKHGYSIEKEQTVSVGDIEMTNFLMYKRI,not soluble
13,MGSDKIHHHHHHMAEKKEFVVGIDLGTTNSVIAWMKPDGTVEVIPNAEGSRVTPSVVAFTKSGEILVGEPAKRQMILNPERTIKSIKRKMGTDYKVRIDDKEYTPQEISAFILKKLKNDAEAYLGGEIKKAVITCPAYFNDAQRQATKEAGIIAGLEVLRIINEPTAAALAYGLDKAGKEEKVLVYDLGGGTFDVSILEIGEGVIEVIATAGNNHLGGDDFDQRLIDWMAEEFKKQHGIDLREDRQALQRLRDAAEKAKIELSTKMETDVSLPFIAVSPSGQPLHLEMRITRSLFESLTRDLVEMTRGPIEQALNDAKLSPQDIDEIILVGGMTRVPMVQRFIKEFFGKEPNKSVNPDEAVAIGAAIQAAILAGTEGAKGRDIVLVDVTPLTLGIEVKGGLFEPIIPRNTKIPVRKSKIFTTVEDGQTEVEIRVYQGERPIARENIFLGSFKLVGIPPAPRGVPQIEVTFDIDSDGIVHVSAKDLGSGKEQSMVVTGRHKLSEDEIKRMIEDAKRYEEQDKRLKEEIELKNRADDLAYSVEKTLKEHGDKIPADLKSRLEDMIRELRDAINRNDIPKVKMLFDDLQKESMKIGEYLYKSATGGETSNQ,not soluble
14,MGSDKIHHHHHHMEITKRIEELREEMVESLKKFISINSVNPAFGGPGEKEKADWLEGLLRDFGFEVDRCDVRDDRGIWRSNIVAKIPGKNREKTLWIVTHIDTVPPGDLSLWETDPFVPVVKDGKVYGRGAEDNGGSMIASIYAGKALIDLGITPEYNFGLALVADEEAGSEYGIQYLIEKGLFSPEDMFLVPDAGNEKGDFIEIAEKSILWFKVMVNGKQGHASRPQTTENALRKGAHLITEIDEALHRKYSDRDELFDEPLSTFEPTRAEKTVDNVNTVPGRFVFYFDCRVLPRYNLDEVLSIVKSILDGRGAELEVVVKQPAPEPTPPDSELVVKLSNVLRSLRGLEAKVGGIGGGTCAAFFRKKGWPAVVWSTIDETAHQPNEYRRISHMVEDAKVFALLGTER,not soluble
15,MLGDVERFFSKKALEMRASEVRELLKLVETSDIISLAGGLPNPKTFPKEIIRDILVEIMEKYADKALQYGTTKGFTPLRETLMKWLGKRYGISQDNDIMITSGSQQALDLIGRVFLNPGDIVVVEAPTYLAALQAFNFYEPQYIQIPLDDEGMKVEILEEKLKELKSQGKKVKVVYTVPTFQNPAGVTMNEDRRKYLLELASEYDFIVVEDDPYGELRYSGNPEKKIKALDNEGRVIYLGTFSKILAPGFRIGWMVGDPGIIRKMEIAKQSTDLCTNVFGQVVAWRYVDGGYLEKHIPEIRKFYKPRRDAMLEALEEFMPEGVKWTKPEGGMFIWVTLPDGIDSKKMLERAIKKGVAYVPGEAFYAHRDVKNTMRLNFTYVDEDKIMEGIKRLAETIKEELKA,soluble
16,MNSALYANYLNILKQELVPALGCTEPIAIAYAAAKAHQVLGEFPDSVNMSLSGNIIKNVKGVTVPNSGGLKGIDVAAILGIVGGNADKALEVLSEITEDDIARTRELVKQHVCSCSLVEGVDNLYITAKVIKGDHFASVTIEHQHTNITRIEKDGEVILDNPYQAECKTVIDKSKLTVKDILDFADQVRIEDVQPIIDRQIKLNSAIAQEGLDNNYGAQIGKTLMHVWGKSVTTRACARAAAGSDARMGGCSMPVVINSGSGNQGMTVSLPVIVFADEWEVSHEKLCRSLVVSNLIAIHQKYYIGSLSAYCGAVSAACGAGAGITYMYGGTYQQVSLTIINTLGNVGGIVCDGAKPSCAAKIASSVDAALMAFQLSIQNKSFLPGEGIIKDDIEETIKSMGYIGRVGMRSTDTEILNVMIDRADINQGC,not soluble
17,TKNWKWEMNFNIAKNSNKLVELADGVDSYSIYWTSFTTRLYNYAMVGKSLGVITGNTWERDDNGNIIFHELSASQKALYGGEYVPTYNQNTLDELGNFHPDFTGGFNTSISFKNFRLSANIDFSVGGQIVSYTNMWGSSSGILDKTAELNDRGVNVREPVSKGGGIHMTGVDQNGNKVDTYVNAKLYYTTASRVWEEWVYDRTYVKLREVSLSYVFPSQTLKKLNIGLSRASVAINASNPWLIYSACPNVDVSEIGMGYFEGGNAAATRSIGFTVNLAF,not soluble
